Laboratory results taken from publication PMC3565344, “Gamma-Aminobutyric Acid Production Using Immobilized Glutamate Decarboxylase Followed by Downstream Processing with Cation Exchange Chromatography” (International Journal of Molecular Sciences, 2013).
Several values for one entry are separate records, joined by “and”; a condition that tells them apart may be missing. Equal entries are not always repeated.

Target: the molecule itself
Experiment: SEC; size exclusion HPLC on TSKgel G3000SW; 20 uL purified GAD injected; isocratic elution at 1 mL/min for 30 min; 0.1 M sodium sulfate in 0.1 M phosphate buffer, pH 6.8; mix of monomer, dimer and tetramer

B1: Escherichia coli glutamate decarboxylase fused to six histidine at its C-terminus (enzyme, E. coli, UniProt P69910 1-466, looked up)
chain: MDKKQVTDLRSELLDSRFGAKSISTIAESKRFPLHEMRDDVAFQIINDELYLDGNARQNLATFCQTWDDENVHKLMDLSINKNWIDKEEYPQSAAIDLRCVNMVADLWHAPAPKNGQAVGTNTIGSSEACMLGGMAMKWRWRKRMEAAGKPTDKPNLVCGPVQICWHKFARYWDVELREIPMRPGQLFMDPKRMIEACDENTIGVVPTFGVTYTGNYEFPQPLHDALDKFQADTGIDIDMHIDAASGGFLAPFVAPDIVWDFRLPRVKSISASGHKFGLAPLGCGWVIWRDEEALPQELVFNVDYLGGQIGTFAINFSRPAGQVIAQYYEFLRLGREGYTKVQNASYQVAAYLADEIAKLGPYEFICTGRPDEGIPAVCFKLKDGEDPGYTLYDLSERLRLRGWQVPAFTLGGEATDIVVMRIMCRRGFEMDFAELLLEDYKASLKYLSDHPKLQGIAQQNSFKHT
notes: glutamate decarboxylase (GAD, EC 4.1.1.15) of E. coli, gene amplified from genomic DNA (GenBank M84025); The reverse primer puts an XhoI site (CTCGAG, would encode Leu-Glu) between the last GAD codon and the six histidines; this is my reading of the primer; also called GAD; EGAD; source: E. coli BL21 (DE3), purified (HisTrap HP, buffer exchange on Sephadex G-25); not shown: His6, C-terminal, kept
In the case of B1, the “stoichiometry N” value is reported as 2 and 4.
